How the values were obtained:
[1] = target: T1, rHuman Erythropoietin R/Fc Chimera, CF (R&D Systems Cat#963-ER) (human, UniProt P19235 25-250); assay: MSD multispot ECL, antigen spotted on plate; Fab 1.19 uM; blank spot 24999
T1 construct: Bought recombinant protein; also called EPO R/Fc; Epo R; Fc part of the bought chimera not given
T1 sequence (looked up): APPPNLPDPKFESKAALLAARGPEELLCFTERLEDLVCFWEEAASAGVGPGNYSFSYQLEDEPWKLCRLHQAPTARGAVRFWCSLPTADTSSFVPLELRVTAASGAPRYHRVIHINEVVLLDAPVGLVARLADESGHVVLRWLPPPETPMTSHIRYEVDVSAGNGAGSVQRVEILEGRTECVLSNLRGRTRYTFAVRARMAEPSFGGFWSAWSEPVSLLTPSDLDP

[2] = target: T2, rHuman P-Cadherin/Fc Chimera, CF (R&D Systems Cat#861-PC) (human, UniProt P22223 108-654); assay: as above
T2 construct: Bought recombinant protein; Fc part of the bought chimera not given

[3] = target: T3, rHuman EGF R/Fc Chimera, CF (R&D Systems Cat#344-ER) (human, UniProt P00533 25-645); assay: as above
T3 construct: Bought recombinant protein; also called epidermal growth factor receptor; Fc part of the bought chimera not given

[4] = target: T4, Recombinant Human DLL4 (R&D Systems Cat#1506-D4/CF) (human, UniProt Q9NR61 27-524); assay: as above
T4 construct: Bought recombinant protein; also called delta-like protein 4; rHuman DLL4

[5] = target: T5, rHuman Notch-1/Fc Chimera, CF (R&D Systems Cat#3647-TK) (human, UniProt P46531 19-526); assay: as above
T5 construct: Bought recombinant protein; Fc part of the bought chimera not given

[6] = target: T1, rHuman Erythropoietin R/Fc Chimera, CF …; assay: MSD multispot ECL, antigen spotted on plate; Fab 0.07438 uM; blank spot 2504
[7] = target: T2, rHuman P-Cadherin/Fc Chimera, CF (R&D …); assay: as above
[8] = target: T3, rHuman EGF R/Fc Chimera, CF (R&D …); assay: as above
[9] = target: T4, Recombinant Human DLL4 (R&D Systems …); assay: as above
[10] = target: T5, rHuman Notch-1/Fc Chimera, CF (R&D …); assay: as above
[11] = target: T1, rHuman Erythropoietin R/Fc Chimera, CF …; assay: MSD multispot ECL, antigen spotted on plate; Fab 0.2975 uM; blank spot 5019
[12] = target: T2, rHuman P-Cadherin/Fc Chimera, CF (R&D …); assay: as above
[13] = target: T3, rHuman EGF R/Fc Chimera, CF (R&D …); assay: as above
[14] = target: T4, Recombinant Human DLL4 (R&D Systems …); assay: as above
[15] = target: T5, rHuman Notch-1/Fc Chimera, CF (R&D …); assay: as above
[16] = target: T1, rHuman Erythropoietin R/Fc Chimera, CF …; assay: MSD multispot ECL, antigen spotted on plate; Fab 0.01859 uM; blank spot 1776
[17] = target: T2, rHuman P-Cadherin/Fc Chimera, CF (R&D …); assay: as above
[18] = target: T3, rHuman EGF R/Fc Chimera, CF (R&D …); assay: as above
[19] = target: T4, Recombinant Human DLL4 (R&D Systems …); assay: as above
[20] = target: T5, rHuman Notch-1/Fc Chimera, CF (R&D …); assay: as above
[21] = target: T6, rHuman IGF-1 sR, (IGF-1 sR), CF (R&D Systems Cat#391-GR) (human, UniProt P08069 31-932); assay: Multispot ECL (MSD) assay, antigen spotted on plate, Fab at 0.0192 µM; blank spot 751
T6 construct: Bought recombinant soluble receptor; also called insulin-like growth factor-1 soluble receptor

[22] = target: T6, rHuman IGF-1 sR, (IGF-1 sR), CF (R&D …); assay: Multispot ECL (MSD) assay, antigen spotted on plate, Fab at 0.48 µM; blank spot 2945
[23] = target: T6, rHuman IGF-1 sR, (IGF-1 sR), CF (R&D …); assay: Multispot ECL (MSD) assay, antigen spotted on plate, Fab at 0.096 µM; blank spot 917
[24] = target: T7, full-length human DLL4 expressed on the surface of CHO cells (human, UniProt Q9NR61 26-685); assay: flow cytometry; 250 nM biotinylated Notch-Fc on CHO-DLL4 cells, streptavidin-PE; no-Fab baseline of the blocking series
T7 construct: also called CHO-DLL4; DLL4-expressing CHO cells

B1: Fab VH1-46_IGHD6-13*01_IGHJ4*01 & L2_IGKJ1*01 (Fab, V domains shown)
VH: QVQLVQSGAEVKKPGASVKVSCKASGYTFTSYYMHWVRQAPGQGLEWMGIINPSGGSTSYAQKFQGRVTMTRDTSTSTVYMELSSLRSEDTAVYYCAREGYSSSWYDYFDYWGQGTLVTVSS
VL: not shown
notes: Germline library Fab expressed in E. coli; VH was cloned into Plasmid A, which adds CH1 with His6 and Flag tags
For B1, which ECL signal [1] is on record?
Its ECL signal is 193000.

And the ECL signal [2]?
Its ECL signal is 69700.

What about the ECL signal [3] of the same binder?
The ECL signal was 62500.

What about the ECL signal [4] of the same binder?
The ECL signal was 74900.

And the ECL signal [5]?
Its ECL signal is 72000.

What about the ECL signal [6] of the same binder?
Its ECL signal is 154000.

What about the ECL signal [7] of the same binder?
Its ECL signal is 14800.

And the ECL signal [8]?
Its ECL signal is 16600.

What about the ECL signal [9] of the same binder?
The ECL signal was 20700.

What about the ECL signal [10] of the same binder?
The ECL signal was 22000.

What about the ECL signal [11] of the same binder?
Its ECL signal is 167000.

What about the ECL signal [12] of the same binder?
Its ECL signal is 26000.

What about the ECL signal [13] of the same binder?
Its ECL signal is 42200.

What about the ECL signal [14] of the same binder?
Its ECL signal is 34700.

And the ECL signal [15]?
The ECL signal was 37500.

What about the ECL signal [16] of the same binder?
The ECL signal was 188000.

And the ECL signal [17]?
The ECL signal was 11700.

What about the ECL signal [18] of the same binder?
Its ECL signal is 11800.

What about the ECL signal [19] of the same binder?
The ECL signal was 18900.

And the ECL signal [20]?
The ECL signal was 17600.

B2: Fab VH1-46_IGHD6-13*01_IGHJ4*01 & A27_IGKJ1*01 (Fab, V domains shown)
VH: QVQLVQSGAEVKKPGASVKVSCKASGYTFTSYYMHWVRQAPGQGLEWMGIINPSGGSTSYAQKFQGRVTMTRDTSTSTVYMELSSLRSEDTAVYYCAREGYSSSWYDYFDYWGQGTLVTVSS
VL: not shown
notes: Germline Fab made in E. coli; VH was cloned in Plasmid A (CH1 constant region, His6 and Flag tags) and the kappa VL in Plasmid C (kappa CL); Only the variable domains are tied to this Fab by name
Which ECL signal [21] does the source give for B2 here?
The ECL signal was 1830.

And the ECL signal [22]?
Its ECL signal is 8930.

What about the ECL signal [23] of the same binder?
Its ECL signal is 2450.

B3: rHuman Notch-1/Fc Chimera (Fc fusion)
chain: ARGPRCSQPGETCLNGGKCEAANGTEACVCGGAFVGPRCQDPNPCLSTPCKNAGTCHVVDRRGVADYACSCALGFSGPLCLTPLDNACLTNPCRNGGTCDLLTLTEYKCRCPPGWSGKSCQQADPCASNPCANGGQCLPFEASYICHCPPSFHGPTCRQDVNECGQKPGLCRHGGTCHNEVGSYRCVCRATHTGPNCERPYVPCSPSPCQNGGTCRPTGDVTHECACLPGFTGQNCEENIDDCPGNNCKNGGACVDGVNTYNCRCPPEWTGQYCTEDVDECQLMPNACQNGGTCHNTHGGYNCVCVNGWTGEDCSENIDDCASAACFHGATCHDRVASFYCECPHGRTGLLCHLNDACISNPCNEGSNCDTNPVNGKAICTCPSGYTGPACSQDVDECSLGANPCEHAGKCINTLGSFECQCLQGYTGPRCEIDVNECVSNPCQNDATCLDQIGEFQCICMPGYEGVHCEVNTDECASSPCLHNGRCLDKINEFQCECPTGFTGHLCQ
notes: Bought from R&D Systems (Cat#3647-TK); also called Notch-Fc; Notch-FC; Fc part of the bought chimera not given
For B3, which “signal of biotinylated Notch-Fc bound to CHO-DLL4 cells without Fab (read-out not given)” value [24] is on record?
Its value is 531.
